Measurements taken from US20090074795A1, “Methods for addressing ocular diseases through interference with the wnt signaling pathway” (priority 2007, published 2009).
“Also recorded” adds a separate entry of the source.

Tests used:
[1] = test system: primary RCEC; assay: HIF-1 activation and VEGF expression induced by LiCl in primary RCEC; type: cell-based, bovine; conditions: 50 mM LiCl plus 85 ng/ml DKK1, 24 hours
Procedure: Blockade of the wnt pathway by DKK1 down-regulates VEGF and HIF-1 expression and reduces vascular leakage in the retina of diabetic rats. To activate the wnt pathway, primary RCEC were treated with 50 mM LiCl, a specific activator of the wnt pathway, in the presence or absence of 85 ng/ml DKK1, a specific inhibitor of the wnt pathway, or BSA for 24 hours. Hypoxia was used as a positive control for HIF-1 activation. The HIF-1 nuclear translocation, a key step in its activation, was measured by immunocytochemistry. Both LiCl and hypoxia increased nuclear levels of HIF-1α, indicating an increased nuclear translocation.
According to embodiments of experimental data, RCEC were exposed to normoxia (FIG. 17A), hypoxia (1% O2) (FIG. 17B), 50 mM LiCl with BSA (FIG. 17C), or 50 mM LiCl plus 85 ng/ml DKK1 (FIG. 17D) for 24 hours. The nuclear translocation of HIF-1α was determined by immunocytochemistry with an antibody against HIF-1α. […] In FIG. 17E, the total levels of VEGF and HIF-1α were determined by western blot analysis with an antibody against HIF-1α or VEGF.

[2] = test system: OIR rats; assay: Retinal NV by fluorescein angiography in OIR rats; type: in vivo, rat; conditions: 3 μl of 1 μg/μl intravitreal at P15, fluorescein angiography at P18, vs BSA
Procedure: To determine the anti-angiogenic effect of DKK1 on retinal NV, DKK1 was injected (3 μl of 1 μg/μl DKK1) into the vitreous of the OIR rats at P15. At the time, NV had partially formed in the OIR rats at P15. The rats were then maintained in normoxia for 3 days, and then the retinal NV was examined using fluorescein angiography on retinal whole mounts at P18.
According to embodiments of experimental data and as shown in FIGS. 19A-19D, the OIR model was generated by exposure of BN rats to 75% oxygen for 5 days (P7-P12). At age of P15, OIR BN rats received a single intravitreal injection of DKK1 into the right eye and the same amount of BSA into the left eye. At P18, retinal vasculature was visualized using fluorescein angiography on the whole-mounted retinas from the left eye injected with BSA (FIGS. 19A and 19B) and the right eyes injected with DKK1 (FIGS. 19C and 19D) by angiography at P18.
Fluorescein Angiography: Angiograms were performed using intracardiac injection of 10 mg/ml fluorescein isothiocyanate-conjugated high molecular weight dextran (Sigma, FD-2000S) in deeply anesthetized mice. Eyes were dissected and fixed with 4% paraformaldehyde in Hanks' balanced saline prepared immediately before use for overnight at 4° C., and retinas were flat-mounted in Fluoromount-G.

[3] = test system: Vldlr^−/− mice; assay: Subretinal injection of purified mouse DKK1 in Vldlr−/− mice (β-catenin phosphorylation, VEGF in eyecup); type: in vivo
Procedure: To confirm the association of the wnt pathway activation with VEGF over-expression in Vldlr^−/− mice, 5 μg purified mouse DKK1, a specific inhibitor of the wnt signal pathway by binding with LRP5/6, were injected into the subretinal space of the Vldlr^−/− mice into one eye and the same amount of a control protein (BSA) into the contralateral eye. Twenty-four hours after the injection, β-catenin phosphorylation and VEGF levels in the eyecup were measured by western blot analysis.
Vldlr^−/− mice received a subretinal injection of 5 μg purified mouse DKK1 into the right eyes, and the same amount BSA into the left eyes. According to embodiments shown in FIG. 9A, The eyecups were dissected 24 h following the injection for the following analyses, phosphorylated β-catenin and VEGF levels were measured by Western blot analysis of a representative mouse eyecup using the anti-phosphorylated β-catenin and anti-VEGF antibodies, respectively. According to embodiments shown in FIG. 9B, VEGF protein levels in Vldlr^−/− eyecups were measured using ELISA. According to embodiments shown in FIG. 9C, VEGF mRNA levels in the Vldlr^−/− eyecups were measured using quantitative real-time RT-PCR. Values are mean±SD (n=4). According to embodiments shown in FIGS. 9D-9G, Vldlr^−/− mice were injected with 5 μg/eye BSA into the subretinal space of the left eye (FIGS. 9D and 9F) and the same amount of DKK1 into the right eye (FIGS. 9E and 9G). The ocular sections were immunostained with an anti-VEGF antibody (FIGS. 9D and 9E) and an anti-β-catenin antibody (FIGS. 9F and 9G). 400×. PRL, photoreceptor layer. According to embodiments shown in FIGS. 9H and 9I, HUVEC were transfected with the VLDLR siRNA. The transfected cells were treated with 10 μg/ml human DKK1or BSA. VEGF protein was measured in the culture medium by ELISA (FIG. 9H) and the VEGF mRNA measured in the cells by real-time RT-PCR, normalized by 18s RNA and expressed as arbitrary unit (mean±SD, n=3) (FIG. 9I), 24 hours after the addition of DKK1.
VEGF ELISA: The human VEGF QuantiGlo ELISA kit (R&D Systems, Inc., Minneapolis, Minn.) was used to measure VEGF levels in HUVEC and ARPE19 cells, and the mouse VEGF Quantikine ELISA kit (R&D Systems, Inc.) was used for mouse tissues following the manufacturer's protocol. The samples of the culture medium were concentrated 10 times, and the samples from mouse tissues were diluted 10 times to ensure that the VEGF concentration fell within the range of the VEGF standard curves.
Western Blot Analysis: The same amount (100 μg) of total proteins from mouse eyecups were used for Western blot analysis using specific primary antibodies for each protein and blotted with an horseradish peroxidase-conjugated secondary antibody. The signal was developed with a chemiluminescence detection kit (ECL; Amersham Biosciences). Blots were then stripped and re-blotted with an antibody specific for β-actin. Each protein band was semiquantified by densitometry and normalized by β-actin levels in the same gel.
Quantitative Real-time Reverse Transcription (RT)-PCR: Mice eyes were enucleated immediately after death into chilled diethylpyrocarbonate-treated normal saline, and the retinas were dissected. Total RNA was isolated using a commercial kit (Qiagen, Santa Clarita, Calif.). […] Fluorescence changes were monitored after each cycle. […] The average CT (threshold cycle) of fluorescence unit was used to analyze the mRNA levels. […]

[4] = 5 μg/eye subretinal, immunohistochemistry, vs BSA contralateral eye

B1: DKK1: Purified Dickkopf-1 protein (R&D System), specific inhibitor of the wnt pathway binding LRP5/6; mouse protein in mice, human in HUVEC (protein, UniProt O54908 32-272; O54908 32-272, looked up)
Dickkopf-related protein 1 1: TLNSVLINSNAIKNLPPPLGGAGGQPGSAVSVAPGVLYEGGNKYQTLDNYQPYPCAEDEECGSDEYCSSPSRGAAGVGGVQICLACRKRRKRCMRHAMCCPGNYCKNGICMPSDHSHFPRGEIEESIIENLGNDHNAAAGDGYPRRTTLTSKIYHTKGQEGSVCLRSSDCAAGLCCARHFWSKICKPVLKEGQVCTKHKRKGSHGLEIFQRCYCGEGLACRIQKDHHQASNSSRLHTCQRH
Dickkopf-related protein 1 2: TLNSVLINSNAIKNLPPPLGGAGGQPGSAVSVAPGVLYEGGNKYQTLDNYQPYPCAEDEECGSDEYCSSPSRGAAGVGGVQICLACRKRRKRCMRHAMCCPGNYCKNGICMPSDHSHFPRGEIEESIIENLGNDHNAAAGDGYPRRTTLTSKIYHTKGQEGSVCLRSSDCAAGLCCARHFWSKICKPVLKEGQVCTKHKRKGSHGLEIFQRCYCGEGLACRIQKDHHQASNSSRLHTCQRH
modifications: mouse protein in mice, human in HUVEC
HIF-1 nuclear translocation induced by LiCl ([1]; immunocytochemistry): inhibited the HIF-1 nuclear translocation; also recorded: blocked
HIF-1α over-expression induced by activation of the wnt pathway ([1]; western blot): blocked
VEGF over-expression induced by activation of the wnt pathway ([1]; western blot): blocked
retinal NV areas [2]: decreased retinal NV areas
VEGF mRNA levels in Vldlr−/− eyecups ([3]; 5 μg subretinal, 24 h, real-time RT-PCR, vs BSA): significantly decreased
phosphorylation of β-catenin in eyecup ([3]; 5 μg subretinal, 24 h, western blot, vs BSA contralateral eye): increased phosphorylation of β-catenin
VEGF protein levels in Vldlr−/− eyecups ([3]; 5 μg subretinal, 24 h, western blot/ELISA, vs BSA): significantly decreased
levels of VEGF in the RPE [3, 4]: significantly decreased
levels of β-catenin in the RPE [3, 4]: significantly decreased
